Measurements reported in PMC5467237.

Biological target: T1, hCHCHD2 WT expressed in CHCHD2-/- MEFs (human), Q9Y6H1
T1 chain: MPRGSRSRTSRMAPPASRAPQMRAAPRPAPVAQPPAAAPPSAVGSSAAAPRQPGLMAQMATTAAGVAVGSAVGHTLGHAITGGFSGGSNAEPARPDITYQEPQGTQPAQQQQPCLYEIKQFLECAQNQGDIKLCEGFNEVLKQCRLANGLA
Experiment: cross-linking; hCHCHD2-expressing MEFs treated with or without 0.5 μg/ml DSP in PBS for 20 min at RT, lysed, western blot with anti-CHCHD2; ratio of monomer signals to total signals
Conditions: remark: other sources report otherwise

B1: hCHCHD2 WT expressed in CHCHD2-/- MEFs, Q9Y6H1 1-151 (natural protein)
chain: MPRGSRSRTSRMAPPASRAPQMRAAPRPAPVAQPPAAAPPSAVGSSAAAPRQPGLMAQMATTAAGVAVGSAVGHTLGHAITGGFSGGSNAEPARPDITYQEPQGTQPAQQQQPCLYEIKQFLECAQNQGDIKLCEGFNEVLKQCRLANGLA
monomer form as share of total CHCHD2 signals (% of total CHCHD2 signals): < 50
stoichiometry N: 2
